Experimental findings from a protein production outcome set (Wang et al. 2014) are described below.

The series is described as follows: label from the status in PepcDB records.
Regarding “MRLTVWTYEGPPQVGAMRVATAMRGVHYVVHAPQGDSYADLLFTMIERRPGRPAVSYTSFQARDLGTDTAALFKTAAADAVARFQPEALLVGSSCTGELIQDDPGGLAKALGLSIPVIPLELPSYQRKENWGAAETFYRLVRTMAGPAAPAPGTPRAPRPAGQRPRCNLLGPTALGFRHRDDVQAVVALLGRMGVDVAVVAPLGASPADLARLGEADFNVVLYPEIADTAVRWLERAFGQPSVRTVPIGVGATRAFIAEVAAVAGVDPAPALAEESLRLPWWSRSVDSTYLTGKRVFIFGDATHAVAAARVATEEFGFEVVGLGTYAREYARELRACAGALGLEALITDDYLDVEAAIADAHPDLVLGTQMERHIAKRLGVPCAVISAPVHVQDFPARTAPQMGFDGANVLFDTWVHPLMMGLEEHLLMMFRDDFEFHGDAAPSHLSAHRPTGEAVGDAVGEPPAAPRDQAAPAATLDGSAAQSDPARTTPPGAPSWEDSAEKELRKVPFFVRGKARRNTERFAAERGLASISVETLYDAKAHFGR”, the protein production result is “failed”.
As to “MKHPDPAQKVEGTTATTPTKVAAFFDLDKTIIAMSSTYAYGREFMNSGLISPVEALQLSLAQATYMFAGHTSEQMDNTRDQLTAMIRGWEVQQVRSIAEETMHSVVTPTIYAEARELIEHHQELGHDVIIISASVKELVEPIARELGVHKTVTTVLEAHDGMYTGEVLFYCKGDAKAQSILDLAEANNYDLSLSFAYSDSFTDLPMLEAVGNPAAVNPDRALKKIALEQGWKILSFKNPEPLFQMPSTRDVGIGTGVVAGIAAVTAGSIWWMKRARRGSA”, the protein production result was “failed”.
In the case of “MPSPTVTSPQVAVNDIGSSEDFLAAIDKTIKYFNDGDIVEGTIVKVDRDEVLLDIGYKTEGVIPARELSIKHDVDPNEVVSVGDEVEALVLTKEDKEGRLILSKKRAQYERAWGTIEALKEKDEAVKGTVIEVVKGGLILDIGLRGFLPASLVEMRRVRDLQPYIGKEIEAKIIELDKNRNNVVLSRRAWLEQTQSEVRSEFLNNLQKGTIRKGVVSSIVNFGAFVDLGGVDGLVHVSELSWKHIDHPSEVVQVGDEVTVEVLDVDMDRERVSLSLKATQEDPWRHFARTHAIGQIVPGKVTKLVPFGAFVRVEEGIEGLVHISELAERHVEVPDQVVAVGDDAMVKVIDIDLERRRISLSLKQANEDYTEEFDPAKYGMADSYDEQGNYIFPEGFDAETNEWLEGFEKQRAEWEARYAEAERRHKMHTAQMEKFAAAETAGRGADDQSSASSAPSEKTAGGSLASDAQLAALREKLAGSALEHHHHHH”, the protein production result was “failed”.
Take “MIPTSREERLKGRRHVRTSEDRSFLVLLAAISVAFGWLLWPFSGALLWATLLAIIFAPLYRLCLETFPEWRNLAALSTVLVVVVMVLIPVAVVIASLVEQGGELYQRVQTGEISFAHPLQQLKSALPDWAASVSDRLAGIDLSALKERLSSLVVPAGQQLAGHAINIGQLTVEFVASLLVMLYLLFFFLRDGDELNLRIRDALPLRRSHTAAILDAFTLSVRGTIKGIILVALIQGALGGLIFWLLGLTAPLLAGALMALLSLLPVLGSALVWVPVGLYLLVAGAVTKGMILLVFGTFVIGLADNFLRPVLVGQSIRMPSYVVLLATLGGLATFGANGFVIGPLVAAMFLTAWHIFVGSKEQQEVRN”: the protein production entry is “failed”.
In the case of “MLAEAGTGTGVAAAASHDAPPKAVPRQLPAPPRITAFLSAFATPPPHCLRLNKSLNGLHNPVTLHVVCQYMLLRSVHGGRERYLNAHVSQGSWPVLVLNADFRPLSYYPLSLWSWQDAIKAVFLDRVNIVAHYDQAVRSPTLEMQLPSVVSLKSFVKPTTHPAFTRFNVFLRDRFACQYCGSPEDLTFDHIIPRSKGGQTTWENVVAACSPCNLRKGNLTPAQAKMFPRQSAFAPTVHQLHRNGRMFPPNYLHDSWLDYLYWDTELDP”, the protein production result is listed as “failed”.
For “VEGRTVTYGQQNGTARTGYLAAPADVDSVRSARGGDALPGIVVIHEWWGLNDNVRAATRRLAGEGYRALAVDLYGGAVAETPDSAQALMGQAMREPSRLVENVRDGRAYLSSEADAPRTALLGWCFGGGMTYRTLAEEASAFDAAVAYYGTPDPLAGEALQALETPILAHFGTQDQAVPIDAARKFRDRMEDAGTSLAYHEYDAGHAFANPSGESYEPAAAEQAWTRTTDFLQTHL”, the protein production entry was “failed”.
With “MNKQLRNNMIVLLFAVILSLILNVAHILLPFMFGPIIASVICVRVFRLEIEWPFWLSQIGLVLLGVQIGSTFTKNVILDIKDDWLTIILITVMLLALALVIAFFFKKIAKVNTETAILSVIPGALSQMLIMAEENKRANIMVVSLTQTSRIIFVVILVPFISYFFRDNGSNGSLEKATTKVLTDAVSIPQILLLALAVFIVYIIMSKINFPTKQLLAPIIVLISWNLITGVTFTLDNYIIASAQVIYMIRIGLQIAKLLDQMKGRIAVAIAFQNVLLILLAFIMVLLISMVSNHSVNELFLGAAPGGMSQIVLVAIETGADVALISSYHIFRIFFILFLIAPLLGHLLKYIDRSHS”, the protein production result was “failed”.
As to “MKIATIKTGLASLAMLPGLVMAAPAVADKADNAFMMICTALVLFMTIPGIALFYGGLIRGKNVLSMLTQVTVTFALVCILWVVYGYSLAFGEGNNFFGNINWLMLKNIELTAVMGSIYQYIHVAFQGSFACITVGLIVGALAERIRFSAVLIFVVVWLTLSYIPIAHMVWGGGLLASHGALDFAGGTVVHINAAIAGLVGAYLIGKRVGFGKEAFKPHNLPMVFTGTAILYIGWFGFNAGSAGTANEIAALAFVNTVVATAAAILGWIFGEWALRGKPSLLGACSGAIAGLVGVTPACGYIGVGGALIIGVVAGLAGLWGVTMLKRLLRVDDPCDVFGVHGVCGIVGCIMTGIFAASSLGGVGFAEGVTMGHQLLVQLESIAITIVWSGVVAFIGYKLADLTVGLRVPEEQEREGLDVNSHGENAYNA”, the protein production result was “failed”.
With “MAIQFIVSNKYTAEVSKQLNDSQNWVLDSGIYYEDHNNHIVSSPINSATKPQNTREEWLWIPPHCQVVVCSTSSLKSFLGCKASEDLDRVFGDHPLWLDQLRPLSNLLENSLIDLLSRAPFEQSSKRNIQSMERGNPVMNWNVMQVEEEDTRGEQRVAASSSLSSSFDWNTFLRDRCGLSEEDVAYCFRKLSRFGRVSLSRLNEDSLLRMGINDPTVIAKLLIGITEEFS”, the protein production result was “failed”.
Regarding “MYQDRQGVVGGGGGGGSAPHGIILAVVVALVVLVPFFIGDSGEAITDAIAELLSPVGLLLLPIILLLTIQFLSSERGSFVSAIFSTGEPESIHRVSGSPVGVALFLVLILFLLYYRFSIFGGDDGSDD”, the protein production entry was “failed”.
For the sequence “MKRAVVVFSGGQDSTTCLIQALQDYDDVHCITFDYGQRHRAEIEVAQELSQKLGAAAHKVLDVGLLNELATSSLTRDSIPVPDYDANAQGIPNTFVPGRNILFLTLASIYAYQVGAEAVITGVCETDFSGYPDCRDEFVKALNQAIVLGIARDIRFETPLMWLNKAETWALADYYQQLDTVRYHTLTCYNGIKGDGCGQCAACHLRANGLAQYQKDAATVMASLKQKVGLR”, the protein production entry is on record as “not failed”.
With “MSTQFSDKFIQNLKPEAKKYYIRESRGFAIVVHPSGIKNPKGTKTFLYIYTINGKRKELKLGNYPEVTLKDARIKHGEAYARLVNGEDPVTPPVIKAEPQDENLTFGHFTELYLQWSKDNHSPKWHNTIKCALNKDALPVWEYTLIASIKRRDAIAFLENVARRGIQVINLHKATSSVFDYALEREYIESNPMAGLKAKTIPALKPKARERFLSDSEIKHVWKAIDEGPGYDETKRALKLIMVTAQRPGEVAAMHRREIQTGVGKPRCKICKRCGWWTIPAERMKNGEEHRIYLTPTALELIGDAEGYIFPSPQDGQPINRNSLSQLVSRERNNKKPNGEMYPPYYGLPEWTPHDLRRTARTLLARVGVPEEHAEEVLSHKKEGLVDRYNRHDYMEEKKEALIKLEAELMKLSI”, the protein production entry is given as “failed”.
On to “MTGVSDIQEAVAQIKAAGPSKPRLARDPVNQPMINNWVEAIGDRNPIYVDDAAARAAGHPGIVAPPAMIQVWTMMGLGGVRPKDDPLGPIIKLFDDAGYIGVVATNCEQTYHRYLLPGEQVSISAELGDVVGPKQTALGEGWFINQHIVWQVGDEDVAEMNWRILKFKPAGSPSSVPDDLDPDAMMRPSSSRDTAFFWDGVKAHELRIQRLADGSLRHPPVPAVWQDKSVPINYVVSSGRGTVFSFVVHHAPKVPGRTVPFVIALVELEEGVRMLGELRGADPARVAIGMPVRATYIDFPDWSLYAWEPDE”, for which the protein production entry is “failed”.
Take “DELFNWFYIRSEINSKMSFYIATESDALVSILGFYACDFLIDSRIVPGLWTAMWFTLPQYRNGIGALLMKELVDTNSCSMWPRRIKHEFTNS”: the protein production entry is reported as “failed”.
